The values below come from article PMC3157396, “Molecular Basis for the Recognition of Adenomatous Polyposis Coli by the Discs Large 1 Protein” (PLoS ONE, 2011).

Substitutions are numbered along the chain they refer to. Names may count otherwise.

B1: PDZ2 domain of human Discs Large 1 (DLG1), residues 315–410 (domain or fragment, UniProt Q12959 315-410, looked up)
chain: EKIMEIKLIKGPKGLGFSIAGGVGNQHIPGDNSIYVTKIIEGGAAHKDGKLQIGDKLLAVNNVCLEEVTHEEAVTALKNTSDFVYLKVAKPTSMYM
notes: human Discs Large 1/Synapse Associated Protein 97 (DLG1), PDZ2 domain, residues 315-410; cloned into a pET28a-derived vector; also called WT PDZ2; second PDZ domain of DLG1; source: E. coli BL21 (DE3), purified (Ni2+-NTA, Superdex 200 gel filtration)
B2: GST-tagged C-terminal 11 residues of human Adenomatous Polyposis Coli (APC), residues 2833–2843 (peptide)
chain: RHSGSYLVTSV
notes: human Adenomatous Polyposis Coli (APC), C-terminal 11 residues, 2833-2843 of the 2,843-residue protein; cloned into pGEX4T1; also called GST-APC-C11; APC-C11; not shown: GST, N-terminal, kept
B3: PDZ2 domain of human DLG1 with the point mutation Q340P (domain or fragment, UniProt Q12959 315-410, looked up)
chain: B1 chain with Q26P
notes: human DLG1 PDZ2 domain, residues 315-410, Q340P; also called PDZ2 Q340P; PDZ2-Q340P; source: E. coli BL21 (DE3), purified

Assay [1] concerns the target B2. As to the kind of experiment: ITC; ITC200, 25°C, 50 mM HEPES pH 7.5, 100 mM NaCl; PDZ domain (400 µM) injected 20 times in 2 µl aliquots into 40 µM GST-tagged APC-C11 or APC-C4; single site binding model. To be noted: both partners purified.
Assay [2] has as its target B3. Described as above. To be noted: both partners purified.

Regarding B1, in assay [1], the dH is -7.09 ± 0.19 kcal/mol and the “stoichiometry N” value came out at 0.916 ± 0.018.

On to B2, for which binding in assay [2] was characterised by a dissociation constant (Kd) of 9.8 ± 1.11 µM. As for B3, in assay [1], the dH is -6.76 ± 0.27 kcal/mol and the “stoichiometry N” value was 1.04 ± 0.03.
